From patent US20220380791A1 come the findings set out here.

For the assay, the target named is M6P receptor (M6PR) (human). Nature of the assay: cell-based or functional assay.

In the case of “Agalsidase beta (Genzyme, Fabrazyme) (from UniProt P06280 32-429)”, the intracellular α-gal A activity of Fabry patient fibroblasts after 18 hours incubation with 10 µg/ml enzyme (fold of untreated cells) was determined as 134 fold.
